Residue numbers refer to the chain shown, from its start. Names and notes keep the numbering of the source.
T1: human FcRH5 protein fragment (soluble) (human, UniProt Q96RD9 16-851)
T1 construct: whole entry named; also called soluble human FcRH5; Human FcRH5 (BIACORE analyte)
T1 sequence: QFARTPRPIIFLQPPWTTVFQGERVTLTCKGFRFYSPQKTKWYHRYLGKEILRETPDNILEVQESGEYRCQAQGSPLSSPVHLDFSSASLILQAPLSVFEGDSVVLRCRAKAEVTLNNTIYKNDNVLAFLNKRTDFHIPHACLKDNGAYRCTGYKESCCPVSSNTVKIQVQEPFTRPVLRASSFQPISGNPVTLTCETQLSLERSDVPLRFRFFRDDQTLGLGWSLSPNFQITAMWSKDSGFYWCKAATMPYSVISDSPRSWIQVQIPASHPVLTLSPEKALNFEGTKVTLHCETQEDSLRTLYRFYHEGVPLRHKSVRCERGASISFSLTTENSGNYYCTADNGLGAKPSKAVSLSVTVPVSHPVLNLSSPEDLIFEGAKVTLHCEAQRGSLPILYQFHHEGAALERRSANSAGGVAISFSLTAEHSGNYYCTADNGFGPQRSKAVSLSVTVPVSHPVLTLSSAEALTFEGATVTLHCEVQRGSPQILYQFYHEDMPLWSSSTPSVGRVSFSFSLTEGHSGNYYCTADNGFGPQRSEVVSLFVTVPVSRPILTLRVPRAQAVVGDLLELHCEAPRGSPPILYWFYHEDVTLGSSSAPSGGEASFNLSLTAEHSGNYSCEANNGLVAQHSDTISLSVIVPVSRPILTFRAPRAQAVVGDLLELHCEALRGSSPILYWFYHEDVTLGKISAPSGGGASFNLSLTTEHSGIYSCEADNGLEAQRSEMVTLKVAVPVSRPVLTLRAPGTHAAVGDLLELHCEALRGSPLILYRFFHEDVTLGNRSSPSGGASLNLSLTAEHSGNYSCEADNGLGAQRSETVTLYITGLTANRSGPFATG

B1: hu1G7.v1 heavy chain W52Y with light chain of hu1G7.v1 (antibody, V domains shown)
VH: EVQLVESGPGLVKPSETLSLTCTVSGFSLTRFGVHWVRQPPGKGLEWLGVIYRGGSTDYNAAFMSRLTISKDNSKNQVSLKLSSVTAADTAVYYCSNHYYGSSDYALDNWGQGTLVTVSS
VL: DIQMTQSPSSLSASVGDRVTITCKASQDVSNIVVWFQQKPGKSPKLLIYSASYRYTGVPSRFSGSGSGTDFTLTISSLQPEDFATYYCQQHYSSPYTFGQGTKVEIK
notes: human IgG
B2: hu1G7.v1 heavy chain W52L with light chain of hu1G7.v1.4 (antibody, V domains shown)
VH: B1 VH with Y52L
VL: B1 VL with S30R, I32L, S43A, A51G, T56S, S94P
notes: human IgG
B3: hu1G7.v1 heavy chain W52Y with light chain of hu1G7.v1.5 (antibody, V domains shown)
VH: B1 VH
VL: B1 VL with A51G, S52Y, H91Q, Y92F, S93Q, S94P
notes: human IgG
B4: hu1G7.v1 heavy chain W52Y with light chain of hu1G7.v1.6 (antibody, V domains shown)
VH: B1 VH
VL: B1 VL with S43A, A51G, S52Y, T56S, H91Q, S93Q, S94P
notes: human IgG
B5: hu1G7.v1 heavy chain W52L with light chain of hu1G7.v1 (antibody, V domains shown)
VH: B1 VH with Y52L
VL: B1 VL
notes: human IgG
B6: hu1G7.v1 heavy chain W52L with light chain of hu1G7.v1.7 (antibody, V domains shown)
VH: B1 VH with Y52L
VL: B1 VL with S30R, I32L, S43A, A51G, S52Y, S93Q, S94P
notes: human IgG
B7: hu1G7.v1 heavy chain W52L with light chain of hu1G7.v1.6 (antibody, V domains shown)
VH: B1 VH with Y52L
VL: B1 VL with S43A, A51G, S52Y, T56S, H91Q, S93Q, S94P
notes: human IgG
B8: hu1G7.v1 heavy chain W52H with light chain of hu1G7.v1.7 (antibody, V domains shown)
VH: B1 VH with Y52H
VL: B1 VL with S30R, I32L, S43A, A51G, S52Y, S93Q, S94P
notes: human IgG
B9: hu1G7.v1 heavy chain W52Y with light chain of hu1G7.v1.4 (antibody, V domains shown)
VH: B1 VH
VL: B1 VL with S30R, I32L, S43A, A51G, T56S, S94P
notes: human IgG
B10: hu1G7.v87 (antibody, V domains shown)
VH: B1 VH with Y52W, M64V
VL: B1 VL
notes: Human IgG
B11: hu1G7.v1 heavy chain W52Y with light chain of hu1G7.v1.3 (antibody, V domains shown)
VH: B1 VH
VL: B1 VL with S30R, S43A, A51G, T56S, H91Q, S94P
notes: human IgG
B12: hu1G7.v1 heavy chain W52Y with light chain of hu1G7.v1.7 (antibody, V domains shown)
VH: B1 VH
VL: B1 VL with S30R, I32L, S43A, A51G, S52Y, S93Q, S94P
notes: human IgG
B13: hu1G7.v1 heavy chain W52L with light chain of hu1G7.v1.3 (antibody, V domains shown)
VH: B1 VH with Y52L
VL: B1 VL with S30R, S43A, A51G, T56S, H91Q, S94P
notes: human IgG
B14: hu1G7.v1 heavy chain W52H with light chain of hu1G7.v1.6 (antibody, V domains shown)
VH: B1 VH with Y52H
VL: B1 VL with S43A, A51G, S52Y, T56S, H91Q, S93Q, S94P
notes: human IgG
B15: hu1G7.v1 heavy chain W52L with light chain of hu1G7.v1.5 (antibody, V domains shown)
VH: B1 VH with Y52L
VL: B1 VL with A51G, S52Y, H91Q, Y92F, S93Q, S94P
notes: human IgG
B16: 1G7.v1C (antibody, human IgG1, V domains shown)
VH: B1 VH with S28P, Y52W
VL: B1 VL
notes: human IgG1 with the light chain of hu1G7.v1; also called C (hu1G7.v1 heavy chain S28P)
B17: hu1G7.v92 (antibody, human IgG1, V domains shown)
VH: B1 VH with Y52W, M64V, S103P
VL: B1 VL with I32L, A51G, T56S, S94P
notes: human IgG1
B18: 1G7.v1H (antibody, human IgG1, V domains shown)
VH: B1 VH with Y52W, S65D
VL: B1 VL
notes: human IgG1 with the light chain of hu1G7.v1; also called H (hu1G7.v1 heavy chain S65D)
B19: 1G7.v1F (antibody, human IgG1, V domains shown)
VH: B1 VH with Y52W, A61P
VL: B1 VL
notes: human IgG1 with the light chain of hu1G7.v1; also called F (hu1G7.v1 heavy chain A61P)
B20: 1G7.v1J (antibody, human IgG1, V domains shown)
VH: B1 VH with Y52W, K81M
VL: B1 VL
notes: human IgG1 with the light chain of hu1G7.v1; also called J (hu1G7.v1 heavy chain K81M)
B21: 1G7.v1E (antibody, human IgG1, V domains shown)
VH: B1 VH with V37Y, Y52W
VL: B1 VL
notes: human IgG1 with the light chain of hu1G7.v1; also called E (hu1G7.v1 heavy chain V37Y)
B22: 1G7.v1I (antibody, human IgG1, V domains shown)
VH: B1 VH with Y52W, S65P
VL: B1 VL
notes: human IgG1 with the light chain of hu1G7.v1; also called I (hu1G7.v1 heavy chain S65P)
B23: 1G7.v1L (antibody, human IgG1, V domains shown)
VH: B1 VH with Y52W, S103P
VL: B1 VL
notes: human IgG1 with the light chain of hu1G7.v1; also called L (hu1G7.v1 heavy chain S100P)
B24: 1G7.v1G (antibody, human IgG1, V domains shown)
VH: B1 VH with Y52W, M64G
VL: B1 VL
notes: human IgG1 with the light chain of hu1G7.v1; also called G (hu1G7.v1 heavy chain M64G)
B25: 1G7.v1K (antibody, human IgG1, V domains shown)
VH: B1 VH with Y52W, S84D
VL: B1 VL
notes: human IgG1 with the light chain of hu1G7.v1; also called K (hu1G7.v1 heavy chain S82bD)
B26: hu1G7.v91 (antibody, human IgG1, V domains shown)
VH: B1 VH with L29T, Y52W, M64V
VL: B1 VL with I32L, A51G, T56S, S94P
B27: 1G7.v1D (antibody, human IgG1, V domains shown)
VH: B1 VH with L29T, Y52W
VL: B1 VL
notes: human IgG1 with the light chain of hu1G7.v1; also called D (hu1G7.v1 heavy chain L29T)
B28: hu1G7.v93 (antibody, human IgG1, V domains shown)
VH: B1 VH with L29T, Y52W, M64V, S103P
VL: B1 VL with I32L, S43A, A51G, T56S, S94P
notes: human IgG1
B29: hu1G7.v86 (antibody, human IgG1, V domains shown)
VH: B1 VH with Y52W, M64V
VL: B1 VL with I32L, A51G, T56S, S94P
notes: human IgG1

molecular target: T1, human FcRH5 protein fragment (soluble); assay: SPR (BIACORE), IgG captured via anti-human IgG, FcRH5 protein fragment as analyte (100 and 500 nM)
Method: (§1) Briefly, a human IgG capture surface was generated on a Series S CM5 chip using amine coupling and the human IgG capture kit (GE Life Sciences, Piscataway, NJ). Test antibodies were then captured on flow cells 2, 3, or 4, with flow cell 1 used as a reference. An FcRH5 protein fragment was used as the analyte, with a flow rate of […]. Between injections the capture surface was regenerated by a 30-second injection of 3M magnesium chloride or 10 mM glycine, pH 1.5. Interactions were assessed at 25° C. in 10 mM HEPES pH7.4, 150 mM NaCl, and 0.05% Tween 20 (HBSP). Reference data from the reference flow cell and from injection of buffer alone were subtracted prior to kinetic analysis. Kinetic information was calculated by fitting data to a 1:1 binding model. Reference subtraction and data fitting were performed using BIAevaluation software (GE Life Sciences, Piscataway, NJ).
(§2) For affinity screening of HVR-H2 Trp52 and Met64 variants (Table 7), antibodies were expressed by transient transfection of Expi293 cells and purified using tip columns that were custom packed with affinity resin MabSelect SuRe (Glygen Corp., Columbia, MD & GE Life Sciences, Piscataway, NJ). […] Binding of FcRH5 protein fragment to captured antibodies was monitored at 100 nM and 500 nM. Association and dissociation were monitored at a flow rate of 40 μl/min, for 180 s and 300 s, respectively.

| Kd [nM] | Binder |
| --- | --- |
| 146 | B1 |
| 92 | B2 |
| 177 | B3 |
| 529 | B4 |
| 103 | B5 |
| 129 | B6 |
| 250 | B7 |
| 89.8 | B8 |
| 131 | B9 |
| 27.4 | B10 |
| 641 | B11 |
| 136 | B12 |
| 239 | B13 |
| 109 | B14 |
| 125 | B15 |

molecular target: T1, human FcRH5 protein fragment (soluble); assay: SPR, hIgG capture, screening
Method: as §1, §2

| Kd [nM] | Binder |
| --- | --- |
| 150 | B1 |
| 92 | B2 |
| 180 | B3 |
| 530 | B4 |
| 100 | B5 |
| 130 | B6 |
| 250 | B7 |
| 90 | B8 |
| 130 | B9 |
| 27 | B10 |
| 640 | B11 |
| 140 | B12 |
| 240 | B13 |
| 110 | B14 |
| 130 | B15 |

molecular target: T1, human FcRH5 protein fragment (soluble); assay: BIACORE, human IgG1, soluble human FcRH5

| Fold improvement over hu1G7.v1 [fold] | Kd [nM] | Fold improvement over hu1G7.v86 [fold] | Binder |
| --- | --- | --- | --- |
| 1.1 | 13.3 | – | B16 |
| 15.9 | 0.9 | 1.5 | B17 |
| 1 | 15 | – | B18 |
| 1.2 | 11.7 | – | B19 |
| 1 | 15.3 | – | B20 |
| 1.3 | 11 | – | B21 |
| 0.9 | 16.2 | – | B22 |
| 3 | 4.8 | – | B23 |
| 1 | 14.4 | – | B24 |
| 1 | 15 | – | B25 |
| – | 0.7 | – | B26 |
| 2.2 | 6.7 | – | B27 |
| 25.3 | 0.6 | 2.5 | B28 |
| 10.3 | 1.4 | – | B29 |

Source: patent US20240383984A1 (Genentech, published 2024)
